Data taken from patent US6800467B1, “Polypeptides having aminopeptidase activity and nucleic acids encoding same” (Novozymes Biotech, Inc., priority 1997, dated 2004).

What was measured:
Type in all cases: biochemical
[1] = pH optimum using Ala-pNA as substrate in universal buffer
Procedure: The purified aninopeptidase II described in Example 15 was used in the following characterizations.
The Ala-pNA substrate was prepared by dissolving 100 mg of Ala-pNA in 1 ml of DMSO and adding 20 μl of the Ala-pNA/DMSO solution to 980 μl of the universal buffer at the various pH values. The assay was initiated by adding a 15 μl aliquot of the aminopeptidase II in 50 mM sodium phosphate pH 7.5 buffer to 200 μl of 2 mg/ml Ala-pNA at the various pH values at ambient temperature. The change in absorbance at 405 nm was monitored for 5 minutes. Autohydrolysis of the substrate as a control was determined by adding 15 μl of 50 mM sodium phosphate pH 7.5 buffer to 200 μl of 2 mg/ml Ala-pNA at the various pH values.

sodium-caseinate = test: Degree of hydrolysis (DH) assay, casein; settings: vs 3 LAPUs FLAVOURZYME alone
Procedure: (§1) The purified aminopeptidase II described in Example 11 was tested in degree of hydrolysis assays using soy, wheat gluten, and casein as substrates according to the following procedure.
(§2) The degree of hydrolysis (DH) assays were performed at 50° C. for 18 hours as a mini-hydrolysis on a 10 ml scale using soy bean meal tablets, wheat gluten meal tablets, and sodium-caseinate at a 2% concentration adjusted to pH 7, if necessary, with no pH adjustment during hydrolysis. The hydrolysates were inactivated at 85° C. for 3 minutes in a waterbath. The enzymes used were FLAVOURZYME™ and aminopeptidase II. The enzymes were dosed as follows. […] Upon hydrolysis, p-nitroanilide is liberated turning the solution yellow which is monitored 405 nm.
(§3) The degree of hydrolysis (DH), as defined as described by Adler-Nissen (1986, Enzymic Hydrolysis of Food Proteins, Elsevier Applied Science Publishers), was determined by reaction of the supernatant with OPA (ortho-phtaldialdehyde, Sigma Chemical Co., St. Louis, Mo.) according to the following procedure The hydrolysate was diluted 100-fold into distilled water. […] The solution was then shaken well and after 2 minutes exactly, the absorbance at 340 nm was measured and compared to the absorbance of a 0.95 mM L-serine (distilled water) solution after subtraction of the blank value (water reacted with OPA reagent). […]

[2] = Temperature stability of the aminopeptidase II, residual activity on Leu-pNA
Procedure: The temperature stability of the aminopeptidase II was determined using the following protocol: 480 μl of 50 mM sodium phosphate buffer pH 7.5 was preincubated at 37°, 45°, 55°, 60°, 65°, 70°, and 75° C. for 30 minutes in a 1.7 ml Eppendorf tube. Then 20 μl of purified aminopeptidase II was added and the sample was then incubated for an additional 20 minutes. The samples were then placed on ice. Once the incubations were completed for all the temperatures, the samples were then assayed for activity using Leu-pNA as substrate.
The assay was performed by mixing 100 μl of the incubation mixtures for the various temperatures with 100 μl of 2 mg/ml Leu-pNA in 50 mM sodium phosphate pH 7.5 buffer at ambient temperature. The absorbance at 405 nm was monitored for 5 minutes.

soy bean meal tablets = test: Degree of hydrolysis (DH) assay, soy; settings: vs 3 LAPUs FLAVOURZYME alone, 50° C., 18 hours
Procedure: as §1, §2, §3

[3] = tested on: wheat gluten meal tablets; test: Degree of hydrolysis (DH) assay, gluten; settings: 50° C., 18 hours
Procedure: as §1, §2, §3

gelatin = test: Degree of hydrolysis (DH) assay, gelatin
[4] = 2 LAPUs aminopeptidase II added to 3 LAPUs FLAVOURZYME
[5] = 5 LAPUs aminopeptidase II added to 3 LAPUs FLAVOURZYME

B1: aminopeptidase II: Recombinant Aspergillus oryzae 1568 (ATCC 20386) aminopeptidase II, 496 amino acids (SEQ ID NO:2), produced in Aspergillus oryzae or Fusarium (protein)
chain: MRSLLWASLLSGVLAGRALVSPDEFPEDIQLEDLLEGSQQLEDFAYAYPERNRVFGGKAHDDTVNYLYEELKKTGYYDVYKQPQVHLWSNADQTLKVGDEEIEAKTMTYSPSVEVTADVAVVKNLGCSEADYPSDVEGKVALIKRGECPFGDKSVLAAKAKAAASIVYNNVAGSMAGTLGAAQSDKGPYSAIVGISLEDGQKLIKLAEAGSVSVDLWVDSKQENRTTYNVVAQTKGGDPNNVVALGGHTDSVEAGPGINDDGSGIISNLVIAKALTQYSVKNAVRFLFWTAEEFGLLGSNYYVSHLNATELNKIRLYLNFDMIASPNYALMIYDGDGSAFNQSGPAGSAQIEKLFEDYYDSIDLPHIPTQFDGRSDYEAFILNGIPSGGLFTGAEGIMSEENASRWGGQAGVAYDANYHAAGDNMTNLNHEAFLINSKATAFAVATYANDLSSIPKRNTTSSLHRRARTMRPFGKRAPKTHAHVSGSGCWHSQVEA
pH of optimal activity ([1]; Ala-pNA as substrate, ambient temperature, enzyme of Example 15 (produced by Fusarium)): 9.5-10
Avg. Activity ([1]; pH 4.42, Ala-pNA, ambient temperature): 0 mOD/min
Relative Activity ([1]; pH 4.42, Ala-pNA, relative to pH 9.68): 0
Avg. Activity ([1]; pH 4.91, Ala-pNA, ambient temperature): 2 mOD/min
Relative Activity ([1]; pH 4.91, Ala-pNA, relative to pH 9.68): 0.006
Avg. Activity ([1]; pH 5.41, Ala-pNA, ambient temperature): 7.8 mOD/min
Relative Activity ([1]; pH 5.41, Ala-pNA, relative to pH 9.68): 0.024
Avg. Activity ([1]; pH 5.89, Ala-pNA, ambient temperature): 13.9 mOD/min
Relative Activity ([1]; pH 5.89, Ala-pNA, relative to pH 9.68): 0.043
Avg. Activity ([1]; pH 6.40, Ala-pNA, ambient temperature): 16.37 mOD/min
Relative Activity ([1]; pH 6.40, Ala-pNA, relative to pH 9.68): 0.051
Avg. Activity ([1]; pH 6.90, Ala-pNA, ambient temperature): 23.48 mOD/min
Relative Activity ([1]; pH 6.90, Ala-pNA, relative to pH 9.68): 0.0727
Avg. Activity ([1]; pH 7.27, Ala-pNA, ambient temperature): 41.24 mOD/min
Relative Activity ([1]; pH 7.27, Ala-pNA, relative to pH 9.68): 0.128
Avg. Activity ([1]; pH 7.59, Ala-pNA, ambient temperature): 69.15 mOD/min
Relative Activity ([1]; pH 7.59, Ala-pNA, relative to pH 9.68): 0.214
Avg. Activity ([1]; pH 8.03, Ala-pNA, ambient temperature): 145.6 mOD/min
Relative Activity ([1]; pH 8.03, Ala-pNA, relative to pH 9.68): 0.45
Avg. Activity ([1]; pH 8.62, Ala-pNA, ambient temperature): 245.99 mOD/min
Relative Activity ([1]; pH 8.62, Ala-pNA, relative to pH 9.68): 0.761
Avg. Activity ([1]; pH 9.25, Ala-pNA, ambient temperature): 306.97 mOD/min
Relative Activity ([1]; pH 9.25, Ala-pNA, relative to pH 9.68): 0.95
Relative Activity ([1]; pH 9.68, Ala-pNA (reference)): 1.0
Avg. Activity ([1]; pH 9.68, Ala-pNA, ambient temperature): 323.15 mOD/min
Avg. Activity ([1]; pH 10.51, Ala-pNA, ambient temperature): 270.8 mOD/min
Relative Activity ([1]; pH 10.51, Ala-pNA, relative to pH 9.68): 0.838
Avg. Activity ([1]; pH 10.95, Ala-pNA, ambient temperature): 197.86 mOD/min
Relative Activity ([1]; pH 10.95, Ala-pNA, relative to pH 9.68): 0.612
increase of absolute DH (sodium-caseinate; 1 LAPU aminopeptidase II added to 3 LAPUs FLAVOURZYME): 7%
increase of absolute DH (sodium-caseinate; [4]): 9%
Percent activity relative to 37° C. ([2]; 20 minutes at 37° C., pH 7.5, no substrate (reference)): 100
Percent activity relative to 37° C. ([2]; 20 minutes at 45° C., pH 7.5, no substrate): 101
Percent activity relative to 37° C. ([2]; 20 minutes at 55° C., pH 7.5, no substrate): 99
Percent activity relative to 37° C. ([2]; 20 minutes at 60° C., pH 7.5, no substrate): 90
Percent activity relative to 37° C. ([2]; 20 minutes at 65° C., pH 7.5, no substrate): 73.7
Percent activity relative to 37° C. ([2]; 20 minutes at 70° C., pH 7.5, no substrate): 64.6
Percent activity relative to 37° C. ([2]; 20 minutes at 75° C., pH 7.5, no substrate): 46
increase of absolute DH (soy bean meal tablets; [4]): at least 8%
increase of absolute DH (soy bean meal tablets; [5]): ≥ 10%
increase of absolute DH [3, 4]: 6%
increase of absolute DH [3, 5]: 9%
increase of absolute DH (gelatin; 2 LAPUs added to 3 LAPUs FLAVOURZYME): 4.9%
increase of absolute DH (gelatin; 5 LAPUs added to 3 LAPUs FLAVOURZYME): 5.3%
